In patent US20190248888A1, “METHODS OF LOWERING BLOOD GLUCOSE LEVELS” (Regeneron Pharmaceuticals, Inc., priority 2016, published 2019):

Experiments:
Slc38a5 in α-cells = experiment: Slc38a5 RNA in situ hybridization and immunofluorescence of pancreas sections; format: in vivo, mouse
From the text: Formalin fixed mouse pancreatic sections were permeabilized and hybridized with custom made mRNA probes to glucagon and mouse Slc38a5 (ACD BIO). Following probe hybridization and amplification, Slc38a5 mRNA was detected using red chromogen and glucagon mRNA with green chromogen (RNAscope 2.5 HD Duplex Reagent Kit) and images were obtained using a Zeiss Axio Scan.Z1 slide scanner (Zeiss).

pancreatic islets = experiment: Ki67 staining of cell proliferation in pancreatic islets; format: in vivo, mouse
From the text: Ki67 staining was used to detect cell proliferation in pancreatic islets from GCGR-antibody treated mice. Cell proliferation was negligible in islets from control antibody treated mice and in non-Gcg(+) islet cells from GCGR-antibody treated mice (FIG. 3A). However, Ki67 staining was detected in GCG(+) cells from the GCGR-antibody treated mice (FIG. 3A).

Slc38a5−/− mice = experiment: GCGR antibody in Slc38a5−/− mice and wildtype littermates; format: in vivo, mouse; details: 10 mg/kg weekly, 20 days
Method: Mice deficient in Slc38a5 (100% C57BL/6NTac) were generated by homologous recombination using Regeneron's VelociGene technology (Valenzuela et al., 2003, Nat Biotechnol 21:652-659). VelociGene allele identification number is VG15016. Both male and female mice were used for the study. […] Slc38a5^−/− mice and wildtype littermates were dosed with GCGR or control antibody (10 mg/kg; n=8) weekly for 20 days. Samples of blood and plasma as well as organ weights and pancreata were collected as outlined above.

C57BL/6 mice = experiment: GCGR antibody with or without rapamycin in C57BL/6 mice: blood chemistry, islet cell mass; details: 21 days
Method: C57BL/6 mice (males, 10 weeks of age, Taconic) were housed (5 mice per cage) in a controlled environment (12-h light/dark cycle, 22±1° C., 60-70% humidity) and fed ad libitum with standard chow (Purina Laboratory Rodent Diet 5001, LabDiet). Mice were assigned to study groups (n=10) based on baseline blood glucose levels. Mice were injected subcutaneously (sc) with GCGR antibody (3 mg/kg) or the control antibody (3 mg/kg) alone or in combination with rapamycin (10 mg/kg) or the vehicle. For the duration of the study, GCGR or control antibody was administered once weekly, whereas rapamycin or the vehicle was administered daily. Blood was collected from the tail for glucose measurements without fasting. Plasma samples were collected via submandibular bleeds at baseline and on day 21 after dosing for analysis of hormones and total amino acid levels. Seven days after the last antibody administration (day 21), mice were sacrificed, organs weighed and pancreata collected.
Pancreas α- and β-cell mass was measured as described elsewhere (Okamato et al., 2015, Endocrinology 156:2781-2794). α- and PP cell mass were determined using anti-somatostatin antibody (Sigma-Aldrich; #SAB4502861) and anti-pancreatic polypeptide antibody (Sigma-Aldrich; #SAB2500747). For quantifying Slc38a5 positive α-cells, pancreas sections were stained with human anti-glucagon and rabbit anti-Slc38a5 (Abcam; #ab72717) primary antibodies, and Alexa Fluor 488 labeled donkey anti-rabbit (Jackson ImmunoResearch; #711-545-152) and Alexa Fluor 594 donkey anti-human (Jackson ImmunoResearch; #709-585-149) secondary antibodies. For quantifying proliferating cells, Alexa Fluor 647 labeled anti-Ki67 (Abcam; #ab194724) was used in combination with anti-glucagon and anti-Slc38a5 antibodies. Slides were scanned using a Zeiss Axio Scan.Z1 slide scanner (Zeiss) and the images were analyzed using the Halo (Indica Labs).
Blood glucose was determined using ACCU-CHEK® Compact Plus (Roche Diagnostics). Plasma glucagon and insulin levels were determined using glucagon and mouse insulin ELISA (Mercodia). Plasma total amino acid levels were measured using L-Amino Acid Quantification Kit (Sigma-Aldrich).

B1: α-GCGR: potent monoclonal GCGR blocking antibody, HCVR/LCVR SEQ ID NOs: 86/88 (antibody, V domains shown)
VH: EVQLVESGGGLVQPGGSLRLSCAASGFTFSNYLMNWVRQAPGKGLEWLANIQEDGIEKYYVDSVKGRFTISRDNAKNSLYLQMNSLRAEDTAVYYCAREPSHYDILTGYDYYYGMDVWGQGTTVTVS
VL: DIQMTQSPSSLSASVGDRVTITCRASQGIRNDLGWYQQKPGKAPKRLIYAASSLQSGVPSRFSGSGSGTEFILTVSSLQPEDFATYYCLQYNSNPFTFGPGTKVDIK
Slc38a5 immunostaining of pancreas sections (Slc38a5 in α-cells; mice, 3 mg/kg, 21 days): detected in a subset of glucagon-positive cells | Slc38a5 mRNA expression in α-cells (RNA ISH) (Slc38a5 in α-cells; pancreas sections of treated mice): upregulation | proliferation rate in Slc38a5(+) relative to Slc38a5(−) α-cells (pancreatic islets; GCGR-antibody treated mice, 11 days): 4 times | Ki67 staining in GCG(+) cells (pancreatic islets; mice treated 11 days): detected | blood glucose levels in Slc38a5−/− mice compared with littermate control mice (Slc38a5−/− mice): to the same extent | reduction of the expansion of α-cell mass in Slc38a5−/− mice relative to treated control mice (Slc38a5−/− mice): 50% | plasma insulin levels (Slc38a5−/− mice; WT and Slc38a5−/− mice): No effects | α-cell mass or number of islets per pancreas area (FIGS. 5H and 5I) (Slc38a5−/− mice; WT and Slc38a5−/− mice): did not affect | blood glucose levels (C57BL/6 mice; C57BL/6 mice, 3 mg/kg weekly): reduce | plasma amino acid levels (C57BL/6 mice; GCGR antibody 3 mg/kg): significantly increased | α-cell size (C57BL/6 mice; GCGR antibody 3 mg/kg): slightly increased
